# Results from PMC8539922, “Reconstitution of Caveolin-1 into Artificial Lipid Membrane: Characterization by Transmission Electron Microscopy and Solid-State Nuclear Magnetic Resonance” (Molecules, 2021).
# Where no end group is shown, it is not given here.
# B1: CAV1(168-178) peptide (peptide)
# peptide: SNVRINLQKEI
# modifications: not fully specified
# notes: Caveolin-1, residues 168-178 of the α-isoform; The ends of the two caps as printed seem swapped (a rink amide resin gives a C-terminal amide; acetyl is usually N-terminal); also called CAV1 C-terminal peptide; CAV1 C-terminus; source: synthetic peptide (Fmoc solid phase, HPLC purified)
# Biological target: the molecule itself
# Assay: negative-stain TEM + thioflavin-T fluorescence; peptide dissolved in DMSO, diluted to 1 mg/mL in 20 mM Tris, pH 8.0, incubated at 37 °C for 48 h
protein,measurement,value
B1,binding result,binds
